In patent publication US12214059B2, “Cleavable radioligands for targeting cell surface receptors and uses thereof” (Full-Life Te[…] Limited, priority 2021, dated 2025):

Assays:
[1] = system: PC-3 PIP tumor-bearing mice; assay: Biodistribution study in SCID mice bearing PC3-PIP tumor; assay type: in vivo, mouse; conditions: for T/K at 4 h (tumor uptake/kidney uptake) / T at 24 h (tumor uptake) / T/K at 24 h (tumor uptake/kidney uptake) / T at 96 h (tumor uptake) / T/K at 96 h (tumor uptake/kidney uptake): PC3 PIP tumor-bearing mice
Experimental: Biodistribution Study in SCID Mice Bearing PC3-PIP Tumor
Severe combined immunodeficient (ICR-SCID) mice from the Institute of Cancer Research (Taconic Farms, Germantown, NY) were utilized for these studies. […] These mice received bilateral subcutaneous rear flank injections of approximately 10×10^6 PC-3 PIP cells (prostate cancer cell PC-3 stably expressing human PSMA) suspended in 100 μL of 0.9% NaCl. […] The tissues and organs were weighed, counted in a PerkinElmer Wizard 3 automatic γ counter, and the percent injected dose (% ID) and % ID/g of each organ or tissue were calculated, as shown in Tables 5-24 and FIG. 1 and FIG. 2.

PSMA = target: T1, PSMA (Homo sapiens, UniProt Q04609); assay: Cell-based radioligand competitive binding assay (^125I-C-8, LNCaP cells); conditions: C-1 = 1.00
T1 construct: host or cells: LNCaP cells
T1 sequence (Q04609 whole entry): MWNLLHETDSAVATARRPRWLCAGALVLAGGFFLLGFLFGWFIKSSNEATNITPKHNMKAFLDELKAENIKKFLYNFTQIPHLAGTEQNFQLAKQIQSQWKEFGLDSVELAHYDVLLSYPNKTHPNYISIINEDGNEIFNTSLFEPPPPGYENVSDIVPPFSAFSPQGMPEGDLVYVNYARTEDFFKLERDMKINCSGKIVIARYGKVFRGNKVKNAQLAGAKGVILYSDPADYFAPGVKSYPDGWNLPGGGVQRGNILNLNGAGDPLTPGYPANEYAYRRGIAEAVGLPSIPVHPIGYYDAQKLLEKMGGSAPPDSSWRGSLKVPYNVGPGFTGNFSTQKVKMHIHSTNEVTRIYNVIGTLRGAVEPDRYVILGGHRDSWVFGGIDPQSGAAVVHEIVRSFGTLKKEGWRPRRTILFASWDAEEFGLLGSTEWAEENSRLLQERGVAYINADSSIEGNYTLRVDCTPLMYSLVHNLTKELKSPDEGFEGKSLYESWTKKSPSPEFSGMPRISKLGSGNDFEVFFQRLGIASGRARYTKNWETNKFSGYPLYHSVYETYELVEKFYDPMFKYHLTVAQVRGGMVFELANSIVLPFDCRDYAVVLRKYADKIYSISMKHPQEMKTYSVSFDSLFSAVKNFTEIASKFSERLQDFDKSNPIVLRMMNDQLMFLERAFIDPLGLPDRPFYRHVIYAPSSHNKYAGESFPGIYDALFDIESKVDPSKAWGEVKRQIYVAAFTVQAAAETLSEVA
Experimental: The culture medium was replaced with fresh medium every 2-3 days. Experiments were performed with cells at 70-80% confluence.
The final volume in each well was maintained at 200 μL and insufficient volume was adjusted by the binding buffer.

[2] = Ex-vivo mouse plasma stability study of ^177Lu-labeled compounds; assay type: in vitro ADME; conditions: 37° C.
Experimental: Plasma Stability Study (Mouse and Human)
Mouse blood was collected via cardiac puncture of the left ventricle. Blood was placed into heparin-coated microfuge tubes and then centrifuged at 3500 rpm for 10 min to separate plasma for stability studies. Human plasma was purchased directly.
At each time point (0, 1, 2, 4, 24, 48 72 h), an aliquot of 25 μL sample was taken and mixed with 100 μL methanol containing 1% formic acid, vertex for 30-60 sec, then centrifuged at 20000 rpm for 10 min. 100 μL supernatant was collected and diluted with 40 μL H2O. 100 μL of the resulting mixture was injected to radio-HPLC for stability assessment, as shown examples FIG. 2 and FIG. 3. The best-fit T½ value of test compounds were calculated by fitting the data with linear or non-linear regression using GraphPad Prism 8.0.1.

LNCap tumor-bearing mice = assay: Biodistribution study in CB-17 SCID mice bearing LNCap tumor; assay type: in vivo, mouse
Experimental: Biodistribution Study in CB-17 SCID Mice Bearing LNCap Tumor
All animal care and experimental procedure were performed by following the animal protocols approved by the ethics committee of China Institute of Radiation Protection. The CB-17 SCID mice (Charles River, Beijing) were utilized for these studies. […] These mice received subcutaneous rear flank injections of approximately 4×10^6 LNCap cells suspended in 200 μL of phosphate-buffered saline (PBS) and Matrigel (Corning) (1/1).

[3] = based on the mean value of the IC50 number
[4] = * = value obtained using nonlinear regression

Molecule	T/K at 4 h (tumor uptake/kidney uptake) [1]	T at 24 h (tumor uptake) [1]	T/K at 24 h (tumor uptake/kidney uptake) [1]	T at 96 h (tumor uptake) [1]	T/K at 96 h (tumor uptake/kidney uptake) [1]	Relative Binding Affinity (PSMA; [3])	Relative Binding Affinity (PSMA; relative)	% Remaining 0 min [2] [%]	% Remaining 1 h [2] [%]	% Remaining 4 h [2] [%]	% Remaining 24 h [2] [%]	% Remaining 48 h [2] [%]	% Remaining 72 h [2] [%]	other results
O=C(O)CC[C@H](NC(=O)N[C@@H](CCCCNC(=O)[C@H](Cc1ccc2ccccc2c1)NC(=O)[C@H]1CC[C@H](CNC(=O)[C@H](CCCCNC(=O)CN2CCN(CC(=O)O)CCN(CC(=O)O)CCN(CC(=O)O)CC2)NC(=O)[C@H](CCC(=O)O)NC(=O)CCCc2ccc(I)cc2)CC1)C(=O)O)C(=O)O [Example C-2, 4pIBA-Glu-Lys(DOTA)-Trx-2NaI-eKuE, reference compound]	0.3	41.1	1.0	20.0	3.7	1.78	1.78	100	100	100	100	100	100	uptake ratio between tumor to kidney ([1]; compared to PSMA-617 (C-1)): poor uptake ratio between tumor to kidney; T½ (h) [2, 4]: Stable
Cc1ccc(CCCC(=O)NCCCC[C@H](NC(=O)CN2CCN(CC(=O)O)CCN(CC(=O)O)CCN(CC(=O)O)CC2)C(=O)NCC2CCC(C(=O)N[C@@H](Cc3ccc4ccccc4c3)C(=O)NCCCC[C@H](NC(=O)N[C@@H](CCC(=O)O)C(=O)O)C(=O)O)CC2)cc1 (stereo partly shown) [Example C-10, DOTA-Lys(pTBA)-Trx-2NaI-eKuE]	–	–	–	–	–	–	0.92	–	–	–	–	–	–	T at 24 h (tumor uptake) (LNCap tumor-bearing mice; LNCap tumor-bearing mice, 24 h): 46.5; T/K at 24 h (tumor uptake/kidney uptake) (LNCap tumor-bearing mice; LNCap tumor-bearing mice, 24 h): 0.89; T at 96 h (tumor uptake) (LNCap tumor-bearing mice; LNCap tumor-bearing mice, 96 h): 34.9; T/K at 96 h (tumor uptake/kidney uptake) (LNCap tumor-bearing mice; LNCap tumor-bearing mice, 96 h): 3.17; uptake ratio between tumor to kidney (LNCap tumor-bearing mice; compared to PSMA-617 (C-1)): poor uptake ratio between tumor to kidney
O=C(O)CC[C@H](NC(=O)N[C@@H](CCCCNC(=O)[C@H](Cc1ccc2ccccc2c1)NC(=O)[C@H]1CC[C@H](CNC(=O)[C@H](CCCCNC(=O)CN2CCN(CC(=O)O)CCN(CC(=O)O)CCN(CC(=O)O)CC2)NC(=O)CCCOC(=O)CNC(=O)[C@H](CCC(=O)O)NC(=O)CCCc2ccc(I)cc2)CC1)C(=O)O)C(=O)O [Example I-2, 4pIBA-Glu-ESL1-Lys(DOTA)-Trx-2NaI-eKuE]	0.6	32.4	5.0	9.8	10.1	1.59	0.75	100	95.6	93.2	76.5	67.5	57.3	uptake ratio between tumor to kidney ([1]; mice bearing PC3-PIP tumor, compared to HTK01169 (C-2)): improved uptake ratio between tumor to kidney; T½ [2, 4]: 80.4 h
O=C(O)CC[C@H](NC(=O)N[C@@H](CCCCNC(=O)[C@H](Cc1ccc2ccccc2c1)NC(=O)[C@H]1CC[C@H](CNC(=O)[C@H](CCCCNC(=O)CCCOC(=O)CNC(=O)CN2CCN(CC(=O)O)CCN(CC(=O)O)CCN(CC(=O)O)CC2)NC(=O)[C@H](CCC(=O)O)NC(=O)CCCc2ccc(I)cc2)CC1)C(=O)O)C(=O)O [Example I-3, 4pIBA-Glu-Lys(-ESL1-DOTA)-Trx-2NaI-eKuE]	0.3	13.9	0.8	6.3	4.0	1.30	1.30	100	88.6	54.8	13.0	9.30	3.99	T½ (h) [2, 4]: 4.9* h
O=C(O)CC[C@H](NC(=O)N[C@@H](CCCCNC(=O)[C@H](Cc1ccc2ccccc2c1)NC(=O)[C@H]1CC[C@H](CNC(=O)[C@H](CCCCNC(=O)CCC(=O)NCCSSCCNC(=O)CN2CCN(CC(=O)O)CCN(CC(=O)O)CCN(CC(=O)O)CC2)NC(=O)[C@H](CCC(=O)O)NC(=O)CCCc2ccc(I)cc2)CC1)C(=O)O)C(=O)O [Example I-4, 4pIBA-Glu-Lys(-SSL1-DOTA)-Trx-2NaI-eKuE]	0.1	0.79	0.2	0.3	1.2	0.95	0.95	–	–	–	–	–	–	–
O=C(O)CC[C@H](NC(=O)N[C@@H](CCCCNC(=O)[C@H](Cc1ccc2ccccc2c1)NC(=O)[C@H]1CC[C@H](CNC(=O)COCCOCCNC(=O)[C@H](CCCCNC(=O)CCCOC(=O)CNC(=O)CN2CCN(CC(=O)O)CCN(CC(=O)O)CCN(CC(=O)O)CC2)NC(=O)[C@H](CCCCNC(=O)COCCOCCNC(=O)COCCOCCNC(=O)[C@H](CCC(=O)O)NC(=O)CCCc2ccc(I)cc2)NC(=O)COCCOCCNC(=O)COCCOCCNC(=O)[C@H](CCC(=O)O)NC(=O)CCCc2ccc(I)cc2)CC1)C(=O)O)C(=O)O [Example I-7, 4pIBA-Glu-OEG-OEG-Lys(-OEG-OEG-Glu-4pIBA)-Lys(-ESL1-DOTA)-OEG-Trx-2NaI-eKuE]	0.7	16.7	0.9	2.6	1.4	0.56	0.54	–	–	–	–	–	–	–
O=C(O)CCCCCCCCCCCCCCCCC(=O)N[C@@H](CCC(=O)NCCOCCOCC(=O)NCCOCCOCC(=O)N[C@@H](CCCCNC(=O)CCCOC(=O)CNC(=O)CNC(=O)CNC(=O)CNC(=O)CN1CCN(CC(=O)O)CCN(CC(=O)O)CCN(CC(=O)O)CC1)C(=O)NCCOCCOCC(=O)NC[C@H]1CC[C@H](C(=O)N[C@@H](Cc2ccc3ccccc3c2)C(=O)NCCCC[C@H](NC(=O)N[C@@H](CCC(=O)O)C(=O)O)C(=O)O)CC1)C(=O)O [Example I-46, HO-C18-gGlu-OEG-OEG-Lys(-ESL1-Gly-Gly-Gly-DOTA)-OEG-Trx-2NaI-eKuE]	–	–	–	–	–	–	–	100	95.1	93.5	81.9	70.6	55.9	T½ (h) [2, 4]: 102* h
(HO-C18-gGlu-Lys(-OEG-DOTA)-OEG-OEG-OEG-NH2CH2CH2NH-TMA(-OEG-Trx-2NaI-eKuE)2 [Example C-7, reference compound]	–	–	–	–	–	0.14	0.14	–	–	–	–	–	–	–
DOTA-gGlu(-eLys-4pIBA)-Trx-2NaI-eKuE [Example C-9, reference compound]	–	–	–	–	–	0.92	–	–	–	–	–	–	–	–
HO-C18-gGlu-OEG-OEG-Gly-5hPA-Lys(DOTA)-OEG-Trx-2NaI-eKuE [Example I-49]	–	–	–	–	–	0.09	0.09	–	–	–	–	–	–	–
HO-C18-gGlu-OEG-OEG-OEG-Lys(DOTA)-OEG-Trx-2NaI-eKuE [Example C-6, reference compound]	–	–	–	–	–	0.05	0.05	–	–	–	–	–	–	–
[HO-C20-gGlu-Lys(-ESL1-ESL1-ESL1-DOTA)-OEG-OEG-OEG-NH2CH2CH2NH—]-TMA-(-OEG-Trx-2NaI-eKuE)2 [Example I-44]	–	–	–	–	–	0.13	–	–	–	–	–	–	–	–
